# In patent US20240229003A1:
# Molecular target: LGR6 (UniProt Q9HBX8)
# Experiment: cell-based or functional assay
# UniProt Q9HBX8, sequence (Q9HBX8 25-967): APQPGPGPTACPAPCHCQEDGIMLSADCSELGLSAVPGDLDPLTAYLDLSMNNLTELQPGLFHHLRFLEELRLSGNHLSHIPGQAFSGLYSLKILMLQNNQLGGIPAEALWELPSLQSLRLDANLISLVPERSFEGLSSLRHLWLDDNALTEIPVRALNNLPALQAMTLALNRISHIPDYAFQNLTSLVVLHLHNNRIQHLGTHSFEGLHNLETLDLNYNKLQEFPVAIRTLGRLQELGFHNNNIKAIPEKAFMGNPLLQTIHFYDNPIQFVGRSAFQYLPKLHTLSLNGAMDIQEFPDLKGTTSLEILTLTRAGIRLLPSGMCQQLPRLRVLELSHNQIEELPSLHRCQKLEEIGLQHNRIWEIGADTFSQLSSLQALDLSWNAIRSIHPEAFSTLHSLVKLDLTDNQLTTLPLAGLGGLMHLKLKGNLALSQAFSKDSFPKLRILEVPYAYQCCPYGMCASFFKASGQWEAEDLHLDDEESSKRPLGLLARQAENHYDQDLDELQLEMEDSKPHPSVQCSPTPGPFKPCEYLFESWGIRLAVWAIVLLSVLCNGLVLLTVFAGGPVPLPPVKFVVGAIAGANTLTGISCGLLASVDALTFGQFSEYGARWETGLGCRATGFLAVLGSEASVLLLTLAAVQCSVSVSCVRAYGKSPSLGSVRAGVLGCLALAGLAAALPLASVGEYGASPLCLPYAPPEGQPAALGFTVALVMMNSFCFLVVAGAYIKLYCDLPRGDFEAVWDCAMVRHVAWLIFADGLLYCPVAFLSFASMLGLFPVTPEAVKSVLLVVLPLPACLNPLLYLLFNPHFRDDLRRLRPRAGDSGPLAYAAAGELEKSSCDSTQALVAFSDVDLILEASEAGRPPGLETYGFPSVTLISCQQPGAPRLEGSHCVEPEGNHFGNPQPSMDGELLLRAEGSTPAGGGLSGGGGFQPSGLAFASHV
substance,measurement,value
MBP-RSPO1-MMAE (from UniProt Q2MKA7 21-145),"IC50 of cell killing on LGR6-overexpressing HEK-LGR6-2 cells (10 days exposure, CCK-8 viability)",0.08 nM
same,"fold potency of killing, HEK-LGR6-2 cells against empty vector-transfected HEK-pcDNA cells",12 fold
